23 sequences from the Immune Epitope Database (IEDB) can be followed below.

Bounds are passed on as bounds.

What is called IC50 is the concentration that gives 50% inhibition. A lower IC50 goes with greater potency in that assay.

Some targets named below: HLA-A*02:06; HLA-A*02:03; HLA-A*02:02; HLA-A*68:02; HLA-A*02:01.
Common to all, as to assay: IEDB peptide-MHC binding, cellular MHC/competitive/fluorescence; ≥ and ≤ were set here for values at or beyond the usual limits of such assays
[1] abbreviates: source organism: Vaccinia virus WR.
Where [2] appears, read: source organism: Influenza A virus.
Setting [3] is: source organism: Mammarenavirus brazilense.

Take TQFNFNGHT: the concentration for half-maximal inhibition (IC50) with HLA-A*02:06 (setting [1]) was 10 µM; with HLA-A*02:03 (setting [1]), 14.4 µM; with HLA-A*02:02 (setting [1]) it was 43.4 µM; with HLA-A*68:02 (setting [1]), 52.2 µM; with HLA-A*02:01 (setting [1]) it was at least 70 µM.

For the sequence ATVSADPL, the half-maximal inhibitory concentration (IC50) in the experiment with HLA-A*02:06 (setting [2]) was 21.5 µM; with HLA-A*02:03 (setting [2]), at least 70 µM; with HLA-A*02:02 (setting [2]), 52 µM; in the experiment with HLA-A*68:02 (setting [2]), 42.3 µM; with HLA-A*02:01 (setting [2]), at least 70 µM.

As to IASAPQQLCT, the half-maximal inhibitory concentration (IC50) in the experiment with HLA-A*02:06 (setting [1]) was 8.31 µM; with HLA-A*02:03 (setting [1]) it was at least 70 µM; with HLA-A*02:02 (setting [1]), 53.2 µM; in the experiment with HLA-A*68:02 (setting [1]) it was 16.4 µM; with HLA-A*02:01 (setting [1]), 36.5 µM.

PLKDVERLQM: the concentration for half-maximal inhibition (IC50) in the experiment with HLA-A*02:06 (setting [1]) is 37.4 µM; in the experiment with HLA-A*02:03 (setting [1]) it was 44 µM; in the experiment with HLA-A*02:02 (setting [1]), 6.16 µM; with HLA-A*68:02 (setting [1]), at least 70 µM; with HLA-A*02:01 (setting [1]), 45.5 µM.

Consider DMICCDSRIV, for which the IC50 with HLA-A*02:06 (setting [1]) came out at 18.9 µM; with HLA-A*02:03 (setting [1]), 6.08 µM; in the experiment with HLA-A*02:02 (setting [1]) it was 11.3 µM; in the experiment with HLA-A*68:02 (setting [1]), 13.3 µM; in the experiment with HLA-A*02:01 (setting [1]) it was 34.7 µM.

For NTTIEKEI, the IC50 in the experiment with HLA-A*02:06 (setting [2]) is at least 70 µM; with HLA-A*02:03 (setting [2]), at least 70 µM; with HLA-A*02:02 (setting [2]) it was at least 70 µM; with HLA-A*68:02 (setting [2]), at least 70 µM; with HLA-A*02:01 (setting [2]), 50.7 µM.

DVEKEKFVAT: the IC50 in the experiment with HLA-A*02:06 (setting [1]) is 69.8 µM; in the experiment with HLA-A*02:03 (setting [1]) it was 54.8 µM; with HLA-A*02:02 (setting [1]), 37.5 µM; with HLA-A*68:02 (setting [1]), at least 70 µM; in the experiment with HLA-A*02:01 (setting [1]), 30.2 µM.

In the case of TATKRIRMA, the half-inhibitory concentration (IC50) with HLA-A*02:06 (setting [2]) is 35.4 µM; with HLA-A*02:03 (setting [2]), 24.1 µM; in the experiment with HLA-A*02:02 (setting [2]), 48.4 µM; with HLA-A*68:02 (setting [2]) it was at least 70 µM; with HLA-A*02:01 (setting [2]), 34 µM.

Take ICFWSTLFFT: the half-inhibitory concentration (IC50) is 34.9 µM in the experiment with HLA-A*02:06 (setting [3]); 35.1 µM with HLA-A*02:03 (setting [3]); 33.2 µM with HLA-A*02:02 (setting [3]); 47.6 µM with HLA-A*68:02 (setting [3]); 11.9 µM with HLA-A*02:01 (setting [3]).

Take PAHKSQLV: the IC50 with HLA-A*02:06 (setting [2]), with HLA-A*02:03 (setting [2]), with HLA-A*02:02 (setting [2]), with HLA-A*68:02 (setting [2]) and in the experiment with HLA-A*02:01 (setting [2]) was at least 70 µM each time.

For RAVKLYRKL, the IC50 is at least 70 µM with HLA-A*02:06 (setting [2]); 49.9 µM with HLA-A*02:03 (setting [2]); at least 70 µM with HLA-A*02:02 (setting [2]); at least 70 µM with HLA-A*68:02 (setting [2]); 53.5 µM with HLA-A*02:01 (setting [2]).

Regarding NLCKYLRGHT, the IC50 was at least 70 µM with HLA-A*02:06 (setting [1]); 8.04 µM with HLA-A*02:03 (setting [1]); 39.6 µM with HLA-A*02:02 (setting [1]); 12.3 µM with HLA-A*68:02 (setting [1]); 37.9 µM in the experiment with HLA-A*02:01 (setting [1]).

Take MQLKIDKLT: the 50% inhibitory concentration (IC50) with HLA-A*02:06 (setting [1]) is 59.7 µM; with HLA-A*02:03 (setting [1]), 60.1 µM; with HLA-A*02:02 (setting [1]) it was 7.67 µM; with HLA-A*68:02 (setting [1]), at least 70 µM; with HLA-A*02:01 (setting [1]), 26.6 µM.

As to DVNEEYTEAA, the IC50 is 59.7 µM with HLA-A*02:06 (setting [1]); 28.8 µM in the experiment with HLA-A*02:03 (setting [1]); 46.3 µM in the experiment with HLA-A*02:02 (setting [1]); 16 µM with HLA-A*68:02 (setting [1]); 42.4 µM with HLA-A*02:01 (setting [1]).

As for DVGCLLTDT, the half-maximal inhibitory concentration (IC50) was at least 70 µM in the experiment with HLA-A*02:06 (setting [1]); 65.4 µM in the experiment with HLA-A*02:03 (setting [1]); at least 70 µM with HLA-A*02:02 (setting [1]); at least 70 µM with HLA-A*68:02 (setting [1]); at least 70 µM with HLA-A*02:01 (setting [1]).

As to PVETLFGSYI, the half-maximal inhibitory concentration (IC50) with HLA-A*02:06 (setting [1]) is at least 70 µM; with HLA-A*02:03 (setting [1]), 11.8 µM; with HLA-A*02:02 (setting [1]) it was 13.7 µM; in the experiment with HLA-A*68:02 (setting [1]) it was 7.16 µM; with HLA-A*02:01 (setting [1]), at least 70 µM.

On to ATKRIRMA, for which the IC50 in the experiment with HLA-A*02:06 (setting [2]) is at least 70 µM; with HLA-A*02:03 (setting [2]), 11.9 µM; in the experiment with HLA-A*02:02 (setting [2]) it was 59.4 µM; with HLA-A*68:02 (setting [2]) it was 58.6 µM; with HLA-A*02:01 (setting [2]), 42.9 µM.

Take IAYERMCNIL: the IC50 with HLA-A*02:06 (setting [2]) was 7.91 µM; with HLA-A*02:03 (setting [2]) it was 16.5 µM; with HLA-A*02:02 (setting [2]) it was 24 µM; with HLA-A*68:02 (setting [2]), 24.6 µM; with HLA-A*02:01 (setting [2]), at least 70 µM.

On to DIVSDSKKIM, for which the concentration for half-maximal inhibition (IC50) with HLA-A*02:06 (setting [1]) was at least 70 µM; with HLA-A*02:03 (setting [1]), 57.2 µM; with HLA-A*02:02 (setting [1]) it was 25.1 µM; with HLA-A*68:02 (setting [1]), at least 70 µM; with HLA-A*02:01 (setting [1]), 64.6 µM.

Turning to VAKCCSKTNT, the IC50 with HLA-A*02:06 (setting [1]) is 40.7 µM; with HLA-A*02:03 (setting [1]), 21.7 µM; with HLA-A*02:02 (setting [1]) it was 14.7 µM; in the experiment with HLA-A*68:02 (setting [1]), at least 70 µM; with HLA-A*02:01 (setting [1]), 20.9 µM.

For the sequence YVKNGTKGKL, the IC50 worked out at 28.5 µM with HLA-A*02:06 (setting [1]); 7.17 µM with HLA-A*02:03 (setting [1]); 5.72 µM with HLA-A*02:02 (setting [1]); 32.6 µM in the experiment with HLA-A*68:02 (setting [1]); 40.6 µM with HLA-A*02:01 (setting [1]).

For the sequence PVDLVKSSFV, the half-maximal inhibitory concentration (IC50) with HLA-A*02:06 (setting [1]) was 26.6 µM; in the experiment with HLA-A*02:03 (setting [1]), 9.64 µM; in the experiment with HLA-A*02:02 (setting [1]), 6.61 µM; with HLA-A*68:02 (setting [1]) it was 10.8 µM; in the experiment with HLA-A*02:01 (setting [1]), 39.3 µM.

For TVDHMAII, the IC50 with HLA-A*02:06 (setting [2]) is 41.8 µM; with HLA-A*02:03 (setting [2]), 13 µM; with HLA-A*02:02 (setting [2]), at least 70 µM; with HLA-A*68:02 (setting [2]), 39.7 µM; in the experiment with HLA-A*02:01 (setting [2]) it was at least 70 µM.
